Data from article PMC3990709, “Structural Differences Explain Diverse Functions of Plasmodium Actins” (PLoS Pathogens, 2014).
Several values for one entry are separate records, joined by “and”; a condition that tells them apart may be missing. Equal entries are not always repeated.

Molecular target: the molecule itself
Assay: native gel or EMSA; native PAGE, ATP form, 0.1 mM CaCl2 and 0.5 mM ATP in the running buffer, 277 K; samples 6.7 µM, immediately and 48 h after purification (stored on ice)

B1: Plasmodium falciparum actin I (natural protein)
chain: not shown
notes: actin I of Plasmodium falciparum, PlasmoDB PF3D7_1246200; also called PfActI; Plasmodium actin I; source: Sf21 cells at 300 K, purified (size exclusion chromatography), alone or as a complex with G1
stoichiometry N: 4 and 12
